Source: the Immune Epitope Database (IEDB)
Blank lines part the entries; values can stand above or below the sequence they belong to.

Columns and labels:
[1] = biological target: HLA-B*40:02; assay: IEDB peptide-MHC binding, purified MHC/competitive/radioactivity; filed as Kd, often an IC50 or EC50 that approximates it; ≥ and ≤ were set here for values at or beyond the usual limits of such assays
[2] = biological target: HLA-B*44:02; assay: as above
[3] = biological target: HLA-B*44:03; assay: as above
[4] = biological target: HLA-B*45:01; assay: as above
[5] = biological target: HLA-B*40:01; assay: as above
[6] = biological target: HLA-B*18:01; assay: as above
[7] = biological target: HLA-A*02:01; assay: as above
[8] = biological target: HLA-A*02:03; assay: as above; settings: source organism: Homo sapiens
[9] = biological target: HLA-A*68:02; assay: as above; settings: source organism: Homo sapiens
[10] = biological target: HLA-A*02:01; assay: IEDB peptide-MHC binding, purified MHC/direct/fluorescence; filed as Kd, often an IC50 or EC50 that approximates it; ≥ and ≤ were set here for values at or beyond the usual limits of such assays; settings: source organism: Itapua hantavirus
[11] = biological target: HLA-A*03:01; assay: as above; settings: source organism: Araucaria virus
[12] = biological target: HLA-B*15:17; assay: IEDB peptide-MHC binding, purified MHC/competitive/fluorescence; filed as Kd, often an IC50 or EC50 that approximates it; ≥ and ≤ were set here for values at or beyond the usual limits of such assays; settings: source organism: Araucaria virus
[13] = biological target: HLA-A*26:01; assay: as above; settings: source organism: Araucaria virus
[14] = biological target: HLA-B*27:03; assay: as above; settings: source organism: Araucaria virus
[15] = biological target: HLA-B*57:01; assay: as above; settings: source organism: Araucaria virus
[16] = biological target: HLA-B*46:01; assay: as above; settings: source organism: Araucaria virus
[17] = biological target: HLA-B*51:01; assay: as above; settings: source organism: Araucaria virus
[18] = biological target: HLA-B*18:01; assay: as above; settings: source organism: Araucaria virus
[19] = biological target: HLA-B*53:01; assay: IEDB peptide-MHC binding, purified MHC/competitive/radioactivity; filed as Kd, often an IC50 or EC50 that approximates it; ≥ and ≤ were set here for values at or beyond the usual limits of such assays; settings: source organism: Dengue virus 3 Martinique/1243/1999
[20] = biological target: HLA-B*35:01; assay: as above; settings: source organism: Dengue virus 3 Martinique/1243/1999
[21] = biological target: HLA-B*51:01; assay: as above
[22] = biological target: HLA-A*01:01; assay: as above; settings: source organism: Dengue virus 1 Brazil/97-11/1997
[23] = source organism: Mammarenavirus brazilense
[24] = source organism: Mammarenavirus choriomeningitidis
[25] = source organism: SARS coronavirus Tor2
[26] = source organism: Lymphocytic choriomeningitis virus (strain Traub)
[27] = source organism: Mammarenavirus lassaense

Sequence: ADMSKLISL
Kd [1, 23]: 0.287 µM | Kd [2, 23]: ≥ 36.9 µM | Kd [3, 23]: ≥ 33.6 µM | Kd [4, 23]: ≥ 77.7 µM | Kd [5, 23]: 17.4 µM | Kd [6, 23]: ≥ 77.5 µM

Sequence: AELLPDTTY
Kd [1, 24]: ≥ 40.4 µM | Kd [2, 24]: 0.353 µM | Kd [3, 24]: 0.52 µM | Kd [4, 24]: 7.85 µM | Kd [5, 24]: ≥ 43.3 µM | Kd [6, 24]: 1.16 µM

Sequence: AEVQIDRLIT
Kd [1, 25]: 0.0587 µM | Kd [2, 25]: 1.66 µM | Kd [3, 25]: 0.0905 µM | Kd [4, 25]: 0.157 µM | Kd [5, 25]: 1.24 µM | Kd [6, 25]: ≥ 25.9 µM

Sequence: DESASKSASV
Kd [1, 25]: 1.21 µM | Kd [2, 25]: 1.97 µM | Kd [3, 25]: 0.887 µM | Kd [4, 25]: 2.78 µM | Kd [5, 25]: 10.2 µM | Kd [6, 25]: 3.78 µM

Kd ([7]; source organism: Homo sapiens): ≥ 58.8 µM | Kd [8]: ≥ 27.6 µM | Kd [9]: ≥ 60 µM
Sequence: DMEISAYRKL

Sequence: EEKGISGTS
Kd [1, 26]: ≥ 45.4 µM | Kd [2, 26]: ≥ 34.1 µM | Kd [3, 26]: ≥ 78.1 µM | Kd [4, 26]: 2.22 µM | Kd [5, 26]: ≥ 53.8 µM | Kd [6, 26]: ≥ 77.5 µM

Sequence: FDAWFSQRGG
Kd [1, 25]: ≥ 70.8 µM | Kd [2, 25]: 9.75 µM | Kd [3, 25]: ≥ 32 µM | Kd [4, 25]: 0.36 µM | Kd [5, 25]: ≥ 69.6 µM | Kd [6, 25]: ≥ 70.5 µM

Sequence: FEKHILPFMS
Kd [1, 27]: 0.672 µM | Kd [2, 27]: ≥ 70.2 µM | Kd [3, 27]: ≥ 70.1 µM | Kd [4, 27]: ≥ 22.3 µM | Kd [5, 27]: ≥ 33.5 µM | Kd [6, 27]: ≥ 22.9 µM

Sequence: FELLNAPAT
Kd [1, 25]: 0.0111 µM | Kd [2, 25]: 5.79 µM | Kd [3, 25]: 6.13 µM | Kd [4, 25]: 0.392 µM | Kd [5, 25]: 1.17 µM | Kd [6, 25]: 0.303 µM

Sequence: FLAAECPFL
Kd [10]: 0.0017 µM | Kd [11]: ≥ 20 µM | Kd [12]: ≥ 20 µM | Kd [13]: ≥ 20 µM | Kd [14]: ≥ 20 µM | Kd [15]: ≥ 20 µM | Kd [16]: ≥ 20 µM | Kd [17]: ≥ 20 µM | Kd [18]: ≥ 20 µM

Sequence: FPQSNAPIQD
Kd [19]: 1.94 µM | Kd [20]: 1.11 µM | Kd ([21]; source organism: Dengue virus 3 Martinique/1243/1999): ≥ 69.6 µM

Sequence: FTQTAGPWHL
Kd [22]: ≥ 23.5 µM | Kd ([21]; source organism: Dengue virus 1 Brazil/97-11/1997): ≥ 36.5 µM

Sequence: GDEALRGFL
Kd [1, 23]: 0.826 µM | Kd [2, 23]: ≥ 47 µM | Kd [3, 23]: ≥ 36.1 µM | Kd [4, 23]: ≥ 43.7 µM | Kd [5, 23]: 7.01 µM | Kd [6, 23]: ≥ 50.9 µM

Sequence: GLSRYVAR
Kd ([7]; source organism: Hepatitis B virus): ≥ 50 µM

Sequence: IDFYLCFLAF
Kd [1, 25]: 16.7 µM | Kd [2, 25]: 0.097 µM | Kd [3, 25]: 0.0881 µM | Kd [4, 25]: 0.117 µM | Kd [5, 25]: 0.839 µM | Kd [6, 25]: 1.56 µM
